The data set deals with prostate-specific antigen (PSA) (UniProt P07288 25-261). The data set can be described thus: electrochemical impedance spectroscopy; Apt-ADA on CD-AuNFs/rGO/SPCE; charge transfer resistance rises with PSA; PBS (detection limit measurement); binding buffer details, pH and temperature not given in the material. As to conditions: protein: commercial; hairpin.
Chain of prostate-specific antigen (PSA) (P07288 25-261): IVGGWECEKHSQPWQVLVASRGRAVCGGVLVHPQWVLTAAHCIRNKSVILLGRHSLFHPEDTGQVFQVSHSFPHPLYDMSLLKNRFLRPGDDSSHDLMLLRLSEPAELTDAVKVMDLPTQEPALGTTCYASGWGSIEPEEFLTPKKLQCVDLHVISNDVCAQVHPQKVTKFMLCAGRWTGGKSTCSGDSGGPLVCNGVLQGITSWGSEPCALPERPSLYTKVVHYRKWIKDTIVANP

Take TTTTTAATTAAAGCTCGCCATCAAATAGCTTT (structured_DNA, 5' amino-C6 coupled to 1-adamantanecarboxylic acid) [anti-PSA aptamer-adamantane conjugate (Apt-ADA)]: the binding result is given as “binds”.

These data come from publication PMC11478330, “Sandwich-Type Electrochemical Aptasensor with Supramolecular Architecture for Prostate-Specific Antigen”.
